Reference: US20240108766A1 (Bayer, published 2024)

T1: human LRRC15 expressed on cells (human, UniProt Q8TF66 22-581)
T1 construct: whole, on cells; On HEK293 cells transfected with LRRC15/ZsGreen1 (Retrogenix), on HT29 cells transfected with human LRRC15, and endogenous on Saos-2; also called LRRC15/ZsGreen1 transfected HEK293 cells; HT29-LRRC15
T1 sequence (looked up): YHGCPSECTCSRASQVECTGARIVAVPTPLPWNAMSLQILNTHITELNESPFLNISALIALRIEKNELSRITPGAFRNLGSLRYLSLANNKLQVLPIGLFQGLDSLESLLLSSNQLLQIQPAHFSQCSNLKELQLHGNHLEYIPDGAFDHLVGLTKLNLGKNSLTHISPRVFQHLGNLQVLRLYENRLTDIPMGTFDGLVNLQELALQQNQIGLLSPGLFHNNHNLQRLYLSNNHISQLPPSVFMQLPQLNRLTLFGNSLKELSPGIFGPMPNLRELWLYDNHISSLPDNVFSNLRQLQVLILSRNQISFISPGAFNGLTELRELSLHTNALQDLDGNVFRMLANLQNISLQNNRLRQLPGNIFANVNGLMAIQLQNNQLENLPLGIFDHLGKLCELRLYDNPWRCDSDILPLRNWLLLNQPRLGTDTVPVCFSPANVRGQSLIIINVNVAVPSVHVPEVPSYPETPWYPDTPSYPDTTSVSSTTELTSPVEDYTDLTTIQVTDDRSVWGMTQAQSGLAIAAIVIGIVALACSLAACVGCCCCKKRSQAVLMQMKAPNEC

T2: human LRRC15 extracellular domain with C-terminal His tag (human, UniProt Q8TF66 22-538)
T2 construct: Recombinant, made in HEK293; the entry holds the extracellular domain and the His tag; SPR analyte; also called TPP-1545; hLRRC15 CT-His
T2 sequence: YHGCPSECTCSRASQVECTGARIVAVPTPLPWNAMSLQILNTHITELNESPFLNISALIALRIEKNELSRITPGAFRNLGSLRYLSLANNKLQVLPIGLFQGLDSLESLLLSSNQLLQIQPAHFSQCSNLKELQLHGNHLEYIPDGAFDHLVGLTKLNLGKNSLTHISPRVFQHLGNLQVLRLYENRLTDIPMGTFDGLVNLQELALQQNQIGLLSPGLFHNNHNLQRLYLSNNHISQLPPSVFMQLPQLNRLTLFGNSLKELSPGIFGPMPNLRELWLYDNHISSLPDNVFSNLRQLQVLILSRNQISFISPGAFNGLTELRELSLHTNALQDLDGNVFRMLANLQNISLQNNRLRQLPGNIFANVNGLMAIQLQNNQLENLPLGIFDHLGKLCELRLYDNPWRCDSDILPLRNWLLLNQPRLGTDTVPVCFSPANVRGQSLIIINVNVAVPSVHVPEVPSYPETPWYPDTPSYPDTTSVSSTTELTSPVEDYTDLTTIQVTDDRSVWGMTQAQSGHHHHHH


Tests used:
[1] = target: T1, human LRRC15 expressed on cells; assay: flow cytometry, transfected HEK293, 2.5 µg/ml
[2] = target: T1, human LRRC15 expressed on cells; assay: flow cytometry, transfected HEK293, 62.5 µg/ml
[3] = target: T2, human LRRC15 extracellular domain with …; assay: SPR Biacore T200, antibody captured, LRRC15 analyte, 10°C
Description: (§1) To assess if anti-LRRC-15 antibodies show a difference in binding at different temperatures, binding assays were conducted using surface plasmon resonance (SPR). Binding assays were performed on a Biacore T200 instrument at temperatures of 10° C., 20° C., 25° C. and 37° C. with assay buffer HBS EP+, 1 mg/ml BSA (bovine serum albumine), 300 mM NaCl, 0.05% NaN₃. Antibodies were captured via anti-human Fc IgGs covalently amine coupled to a CM5 sensor chip and human LRRC15 was used as an analyte in a concentration series from 1.56-200 nM in multi cycle kinetics mode. Pre-experiments were conducted to have an equal capture level at each temperature. Obtained sensorgrams were fitted to a 1:1 Langmuir binding model to derive kinetic data.

[4] = target: T2, human LRRC15 extracellular domain with …; assay: SPR at 10-37°C (Example 3)
Description: as §1

[5] = target: T1, human LRRC15 expressed on cells; assay: flow cytometry, transfected HEK293, 0.004 µg/ml
[6] = target: T2, human LRRC15 extracellular domain with …; assay: SPR Biacore T200, 25°C, antibody captured, LRRC15 analyte
Description: To assess the binding kinetics and affinity of anti-LRRC15 antibodies as well as their species cross-reactivity profile, binding assays were conducted using surface plasmon resonance (SPR). Binding assays were performed on a Biacore T200 instrument at 25° C. using assay buffer HBS EP+, 1 mg/ml BSA, 300 mM NaCl, 0.05% NaN3. Antibodies were captured via anti-human Fc IgGs covalently amine coupled to a CM5 sensor chip and human, mouse and cynomolgus LRRC15 were used as analytes in a concentration series from 1.56-200 nM in multi cycle kinetics mode. […] Obtained sensorgrams were fitted to a 1:1 Langmuir binding model to derive kinetic data.

[7] = target: T1, human LRRC15 expressed on cells; assay: flow cytometry, transfected HEK293, 0 µg/ml
[8] = target: T2, human LRRC15 extracellular domain with …; assay: calculated from SPR kd, 20°C
Description: as §1

[9] = target: T1, human LRRC15 expressed on cells; assay: flow cytometry, transfected HEK293, 0.1 µg/ml
[10] = target: T2, human LRRC15 extracellular domain with …; assay: SPR Biacore T200, antibody captured, LRRC15 analyte, 20°C
Description: as §1

Row | Median Fluorescence AF647 [1] | Median Fluorescence AF647 [2] | Kd [3] | Temperature dependent loss in binding affinity [4] | Median Fluorescence AF647 [5] | Kd [6] | Median Fluorescence AF647 [7] | Complex Half Life [8] | Median Fluorescence AF647 [9] | Kd [10] | Binder
1 | 777000 | 621000 | 0.32 nM | 30.9 fold | 27600 | 1.7 nM | 597 | 4.18 h | 284000 | 0.88 nM | TPP-17078 (antibody, human IgG1, kappa, V domains shown, also called 438H-M308-H05-hIgGkappa) VH: EVQLVQSGAEVKKPGASVKVSCKASGYKFSSYWIEWVKQAPGQGLEWIGEILPGSDTTNYNEKFKDRATFTSDTSINTAYMELSRLRSDDTAVYYCARDRGNYRAWFGYWGQGTLVTVSS VL: DIQMTQSPSSLSASVGDRVTITCRASQSISSYLNWYQQKPGGAPKFLIYYASSLQSGVPSRFSGSGSGTDYTLTISSLQPEDFATYYCQQGFSLPWTFGGGTKVEIKR
2 |  |  | 0.61 nM | 108 fold |  | 5.9 nM |  | 0.41 h |  | 2 nM | TPP-14389 (antibody, human IgG1, kappa, V domains shown, also called 13612-rec02-hIgG1Kappa) VH: EVQLLESGGGLVQPGGSLRLSCAASGFTFSGYMMSWVRQAPGKGLEWVSGIYPSPGYTYYADSVKGRFTISRDNSKNTLYLQMNSLRAEDTAVYYCAREKASDLFGSYSEALDYWGQGTLVTVSS VL: DIQMTQSPDSLSASVGDRVTITCRASQDVGSWLAWYQQKPGKAPKLLIFAASSLESGIPSRFSGSGSGTDFTLTISSLQPEDFATYYCQQANGFPLTFGGGTKVEIKR

Further lines, the binder ahead of its results:

Row | Binder | Median Fluorescence AF647 [1] | Median Fluorescence AF647 [2] | Kd [3] | Temperature dependent loss in binding affinity [4] | Median Fluorescence AF647 [5] | Kd [6] | Median Fluorescence AF647 [7] | Complex Half Life [8] | Median Fluorescence AF647 [9] | Kd [10]
3 | TPP-12942 (antibody, human IgG1, kappa, V domains shown, Prior art humanized IgG1 kappa antibody, used as comparator; also called huM25; huM25-hIgG1Kappa) VH: EVQLVQSGAEVKKPGASVKVSCKASGYKFSSYWIEWVKQAPGQGLEWIGEILPGSDTTNYNEKFKDRATFTSDTSINTAYMELSRLRSDDTAVYYCARDRGNYRAWFGYWGQGTLVTVSS VL: DIQMTQSPSSLSASVGDRVTITCRASQDISNYLNWYQQKPGGAVKFLIYYTSRLHSGVPSRFSGSGSGTDYTLTISSLQPEDFATYFCQQGEALPWTFGGGTKVEIKR | 746000 | 620000 | 5.2 nM | 13.8 fold | 19800 | 25 nM | 594 | 0.218 h | 213000 | 
4 | TPP-17421 (antibody, human IgG1, kappa, V domains shown, also called 438H-M306-C11-hIgG1Kappa) VH: EVQLVQSGAEVKKPGASVKVSCKASGYKFSSYWIEWVKQAPGQGLEWIGEILPGSDWTNYNEKFKDRATFTSDTSINTAYMELSRLRSDDTAVYYCARDRGNYRAWFQYWGQGTLVTVSS VL: DIQMTQSPSSLSASVGDRVTITCRASQSISSYLNWYQQKPGGAPKFLIYYASSLQSGVPSRFSGSGSGTDYTLTISSLQPEDFATYYCQQGLELPWTFGGGTKVEIKR | 649000 | 650000 | 0.46 nM | 5.2 fold | 13100 | 0.96 nM | 588 | 4.48 h | 102000 | 0.82 nM
